Source: PMC11497405

Experiments:
Assay in all cases: SEC; size exclusion chromatography coupled online to ICP-sfMS (HPLC-ICP-MS) with diode array detection, metal-free HPLC system; apparent MW from a calibration curve; purified MTs with their bound metals
[1] = molecular target: native (non-tagged) Brassica napus metallothionein BnMT2 (Brassica napus)
[2] = molecular target: native (non-tagged) Brassica napus metallothionein BnMT3a (Brassica napus)
[3] = molecular target: native (non-tagged) Brassica napus metallothionein BnMT3b (Brassica napus)

“native (non-tagged) Brassica napus metallothionein BnMT2 (natural protein)” showed a stoichiometry N [1] of 2.

Substance “native (non-tagged) Brassica napus metallothionein BnMT3a (natural protein)” has a stoichiometry N [2] of 2.

“native (non-tagged) Brassica napus metallothionein BnMT3b (natural protein)” gave a stoichiometry N [3] of 2.
